Molecular target: E. coli core RNAP enzyme (E. coli, UniProt P0A7Z4 1-329; P0A8V2 1-1342; P0A8T7 1-1407; P0A800 1-91)
Experiment: fluorescence polarisation

Sequence of E. coli core RNAP enzyme (P0A7Z4 whole entry, chain 1 of 4): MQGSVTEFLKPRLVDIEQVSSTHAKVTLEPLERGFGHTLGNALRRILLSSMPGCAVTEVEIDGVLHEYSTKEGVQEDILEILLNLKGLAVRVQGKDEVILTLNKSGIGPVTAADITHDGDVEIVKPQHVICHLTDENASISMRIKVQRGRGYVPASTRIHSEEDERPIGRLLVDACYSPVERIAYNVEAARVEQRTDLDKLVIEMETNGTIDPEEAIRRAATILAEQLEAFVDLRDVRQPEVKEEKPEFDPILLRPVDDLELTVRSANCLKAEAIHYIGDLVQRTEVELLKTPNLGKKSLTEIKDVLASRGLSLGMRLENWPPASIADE
Sequence of E. coli core RNAP enzyme (P0A8V2 whole entry, chain 2 of 4): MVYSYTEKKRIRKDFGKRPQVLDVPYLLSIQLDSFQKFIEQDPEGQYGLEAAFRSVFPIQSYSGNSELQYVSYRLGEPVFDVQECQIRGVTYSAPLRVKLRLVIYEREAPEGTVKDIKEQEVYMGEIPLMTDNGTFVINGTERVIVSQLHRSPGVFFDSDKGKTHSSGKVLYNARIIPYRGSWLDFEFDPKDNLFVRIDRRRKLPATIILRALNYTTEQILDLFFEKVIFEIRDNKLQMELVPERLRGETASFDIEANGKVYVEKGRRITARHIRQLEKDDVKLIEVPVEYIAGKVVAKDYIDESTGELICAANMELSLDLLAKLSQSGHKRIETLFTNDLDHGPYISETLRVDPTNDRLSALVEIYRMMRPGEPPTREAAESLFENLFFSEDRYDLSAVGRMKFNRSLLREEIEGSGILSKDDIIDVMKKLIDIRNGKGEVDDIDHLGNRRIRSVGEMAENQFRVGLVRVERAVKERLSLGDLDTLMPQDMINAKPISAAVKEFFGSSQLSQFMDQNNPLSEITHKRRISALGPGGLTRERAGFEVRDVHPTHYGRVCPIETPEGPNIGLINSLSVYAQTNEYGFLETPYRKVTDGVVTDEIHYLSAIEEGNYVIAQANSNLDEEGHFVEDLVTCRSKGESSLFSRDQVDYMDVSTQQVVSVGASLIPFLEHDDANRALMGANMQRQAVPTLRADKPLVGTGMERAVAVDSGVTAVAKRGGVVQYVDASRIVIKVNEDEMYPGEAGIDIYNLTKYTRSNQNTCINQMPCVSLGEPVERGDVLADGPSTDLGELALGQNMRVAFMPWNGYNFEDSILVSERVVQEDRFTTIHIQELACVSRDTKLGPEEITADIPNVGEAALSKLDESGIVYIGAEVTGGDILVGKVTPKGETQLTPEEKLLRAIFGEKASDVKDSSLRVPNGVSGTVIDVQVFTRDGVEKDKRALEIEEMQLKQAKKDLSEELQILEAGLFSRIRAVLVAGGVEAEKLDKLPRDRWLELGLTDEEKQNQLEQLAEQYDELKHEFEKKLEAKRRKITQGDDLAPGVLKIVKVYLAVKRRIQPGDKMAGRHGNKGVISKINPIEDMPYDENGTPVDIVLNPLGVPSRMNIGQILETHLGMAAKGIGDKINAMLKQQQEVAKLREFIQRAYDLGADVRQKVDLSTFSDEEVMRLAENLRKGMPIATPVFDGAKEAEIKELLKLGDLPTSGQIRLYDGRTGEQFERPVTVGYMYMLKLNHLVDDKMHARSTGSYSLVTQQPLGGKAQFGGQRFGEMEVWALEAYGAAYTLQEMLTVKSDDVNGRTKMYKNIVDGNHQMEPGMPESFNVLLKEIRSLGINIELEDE
Sequence of E. coli core RNAP enzyme (P0A8T7 whole entry, chain 3 of 4): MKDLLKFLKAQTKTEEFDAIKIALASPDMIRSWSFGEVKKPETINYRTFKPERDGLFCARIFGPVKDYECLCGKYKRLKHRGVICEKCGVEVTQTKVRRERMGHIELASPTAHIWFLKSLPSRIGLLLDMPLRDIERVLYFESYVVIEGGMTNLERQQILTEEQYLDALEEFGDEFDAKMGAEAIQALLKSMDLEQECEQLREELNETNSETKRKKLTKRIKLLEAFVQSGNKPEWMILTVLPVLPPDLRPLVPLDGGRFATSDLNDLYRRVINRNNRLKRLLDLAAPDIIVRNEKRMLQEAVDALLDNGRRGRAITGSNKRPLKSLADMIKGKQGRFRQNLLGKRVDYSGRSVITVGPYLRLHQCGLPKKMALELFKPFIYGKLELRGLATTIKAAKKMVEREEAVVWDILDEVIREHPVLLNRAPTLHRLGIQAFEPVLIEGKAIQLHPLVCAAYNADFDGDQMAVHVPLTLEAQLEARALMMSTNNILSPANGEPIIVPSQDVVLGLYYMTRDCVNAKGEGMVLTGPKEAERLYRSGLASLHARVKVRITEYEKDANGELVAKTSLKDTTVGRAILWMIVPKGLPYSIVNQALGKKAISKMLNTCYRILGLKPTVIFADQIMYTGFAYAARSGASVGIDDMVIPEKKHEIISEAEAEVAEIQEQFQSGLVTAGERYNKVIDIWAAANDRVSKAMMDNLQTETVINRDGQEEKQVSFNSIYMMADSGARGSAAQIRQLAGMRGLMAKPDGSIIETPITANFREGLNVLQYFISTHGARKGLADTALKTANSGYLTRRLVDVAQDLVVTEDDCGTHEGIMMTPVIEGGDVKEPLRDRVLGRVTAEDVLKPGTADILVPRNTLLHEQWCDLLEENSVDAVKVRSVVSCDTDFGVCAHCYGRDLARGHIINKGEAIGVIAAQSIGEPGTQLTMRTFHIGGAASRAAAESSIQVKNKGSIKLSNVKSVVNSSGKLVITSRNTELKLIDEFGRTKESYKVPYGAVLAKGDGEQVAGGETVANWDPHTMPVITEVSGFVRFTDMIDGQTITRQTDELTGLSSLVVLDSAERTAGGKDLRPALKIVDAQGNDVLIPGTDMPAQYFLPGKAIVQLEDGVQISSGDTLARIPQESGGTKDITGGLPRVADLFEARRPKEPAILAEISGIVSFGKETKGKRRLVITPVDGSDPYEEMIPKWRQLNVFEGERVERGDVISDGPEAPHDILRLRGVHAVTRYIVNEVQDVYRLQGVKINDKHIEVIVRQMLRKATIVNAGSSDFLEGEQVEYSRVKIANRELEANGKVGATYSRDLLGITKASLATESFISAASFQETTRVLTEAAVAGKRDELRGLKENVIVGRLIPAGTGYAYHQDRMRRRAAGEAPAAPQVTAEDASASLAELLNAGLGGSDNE
Sequence of E. coli core RNAP enzyme (P0A800 whole entry, chain 4 of 4): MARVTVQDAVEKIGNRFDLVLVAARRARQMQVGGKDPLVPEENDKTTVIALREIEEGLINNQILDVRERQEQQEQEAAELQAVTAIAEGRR

B1: BODIPY FL-labelled DksA with a cysteine substitution at position 35 (A35C) (natural protein, E. coli)
chain: MQEGQNRKTSSLSILAIAGVEPYQEKPGEEYMNECQLAHFRRILEAWRNQLRDEVDRTVTHMQDEAANFPDPVDRAAQEEEFSLELRNRDRERKLIKKIEKTLKKVEDEDFGYCESCGVEIGIRRLEARPTADLCIDCKTLAEIREKQMAG
modifications: BODIPY FL (maleimide) conjugated to the cysteine at position 35
Kd: 112 nM
